B1: OR4K15 (parent)
chain: GUUAACGGUCAUAGGCCAUGGAAACUAGGAGCACCAUUUCGCUGCCAGUGAAGAAAUGAACAAAGAAAAUCUGGGCCAGGCAGGCAUCAAAAGAAAUAGUCUUGCGCUCAACCAGAAAGUCUGUAAUCAUUUUAAGGGUA

Self-cleavage data for 167 variants are collected here from the RNAGym collection of RNA variant scans (doi:10.7554/elife.90254).

Variants of B1 are the subject of this data set. As to the kind of experiment: self-cleavage, relative activity (ratio to wild type); higher = more cleavage; in vitro, sequencing; the parent is a self-cleaving ribozyme.
For C112A U127C, the self-cleavage was found to be 0.03.
In the case of A62U A89U, the self-cleavage stood at 1.93.
In the case of A33G A36G, the self-cleavage is 1.15.
On to A33U, for which the self-cleavage came out at 1.4.
For A27G A82C, the self-cleavage was found to be 0.1.
Take A98G A116G: the self-cleavage worked out at 0.12.
Take C107A A111G: the self-cleavage turned out to be 0.02.
For the variant A62C A135G, the self-cleavage was 1.24.
For U19C A91G the value was 1.09; for G75C A111G, 0.
For the variant U43C A96G, the self-cleavage was found to be 1.09.
Consider A69C A126G, for which the self-cleavage was 0.51.
Regarding A94G A126G, the self-cleavage stood at 1.3.
Regarding U9C U12A, the self-cleavage stood at 1.59.
As for A96U A126G, the self-cleavage worked out at 1.58.
In the case of U87A A114U, the self-cleavage stood at 0.1.
Turning to A67G A94U, the self-cleavage is 1.92.
On to G14C U132C, for which the self-cleavage stood at 1.04.
On to A96G U100C, for which the self-cleavage was 2.42.
As for C6U A78U, the self-cleavage came out at 0.25.
Take U39C A68G: the self-cleavage is 1.37.
On to U38C A125G, for which the self-cleavage is 0.54.
For A94U A116G, the self-cleavage came to 0.48.
A5G G15A: the self-cleavage was 1.02.
For G75A A116G the value was 0.06; for A51G C121U, 2.74; for A36G A82C, 0.2.
For the variant A5G A27G, the self-cleavage worked out at 1.02.
Turning to A60G U127G, the self-cleavage came out at 1.52.
For A51G A90G, the self-cleavage was 1.29.
Consider U3A A47U, for which the self-cleavage amounted to 1.18.
For C45U A67G the value was 1.94; for U2C A4G, 0.87.
Consider U100C G115U, for which the self-cleavage amounted to 0.71.
As for A51G G136U, the self-cleavage was 2.08.
Consider U49C A117U, for which the self-cleavage is 1.08.
As to A114G U120C, the self-cleavage was determined as 0.18.
For A62G A64G the value was 0.94; for A18U A78U, 0.45.
G123C: the self-cleavage was 1.16.
A51G A62U: the self-cleavage amounted to 1.49.
As to A63G A111U, the self-cleavage was 0.18.
Consider U49C A68G, for which the self-cleavage was determined as 1.55.
Take A94U A98G: the self-cleavage was found to be 1.06.
For A59G U103C the value was 0.67; for A82G A86G, 0.14.
On to U2C G7A, for which the self-cleavage worked out at 1.22.
For A33G A114G the value was 0.11.
As for C46U U102C, the self-cleavage is 1.84.
As to A59U U100C, the self-cleavage came out at 2.73.
With C6A A89U, the self-cleavage was 1.38.
For U38C A140G the value was 2.16.
For C17U, the self-cleavage is 0.8.
As to U2C U72G, the self-cleavage came out at 0.19.
As to A118U U122C, the self-cleavage is 0.89.
Regarding A30G A62U, the self-cleavage is 1.29.
A90U U124G: the self-cleavage was 1.66.
Turning to G50A U100C, the self-cleavage came out at 2.01.
Consider A55U A118G, for which the self-cleavage is 1.43.
For the variant U37C A60U, the self-cleavage worked out at 1.69.
As to A47U A126G, the self-cleavage was found to be 0.77.
For A78C A125G the value was 0.04; for A33G A62U, 0.76.
For U19C A116U the value was 0.3; for G21C U102C, 2.26; for A11U U43C, 1.44.
As for A24G A66G, the self-cleavage is 0.73.
Take U2A U127C: the self-cleavage was 1.08.
Turning to A66G A118C, the self-cleavage came out at 1.11.
With A110G A134G, the self-cleavage came to 0.12.
For A27G A135G the value was 0.84; for G15A A51G, 1.52.
For U39A A95G the value was 2.05; for U57C A86G, 0.94.
With A90U A111G, the self-cleavage was determined as 0.02.
For U100C U120C, the self-cleavage turned out to be 2.65.
As to A69G U97C, the self-cleavage was determined as 0.98.
Turning to U9C A125G, the self-cleavage amounted to 0.66.
As for A59G U72A, the self-cleavage amounted to 0.05.
Turning to A94U, the self-cleavage was found to be 1.08.
As for A5U A51U, the self-cleavage turned out to be 0.66.
With A27G A62G, the self-cleavage worked out at 1.46.
A116U A129G: the self-cleavage amounted to 0.13.
With A68G U139C, the self-cleavage was 0.95.
For A68C U132C the value was 1.61.
For the variant A18G U38G, the self-cleavage was 1.56.
A30G C85U: the self-cleavage was found to be 0.69.
For A78U A91G the value was 0.11.
For G74A U139C the value was 0.19; for U43A G53A, 1.84; for U19G A111G, 0.04.
For U120A U133C the value was 1.41.
Consider U3A G53A, for which the self-cleavage was determined as 1.01.
Turning to G20A U38G, the self-cleavage was 1.25.
For A64C G137A, the self-cleavage is 1.49.
Consider U87C U122A, for which the self-cleavage is 1.32.
For A27G A89U the value was 2; for A125G G138C, 0.83; for A11G A64U, 0.97.
As to A11C A86G, the self-cleavage worked out at 1.7.
As for A23G A94U, the self-cleavage is 1.54.
In the case of U70C A125U, the self-cleavage was 1.06.
As to C121A U130C, the self-cleavage stood at 1.87.
Regarding C25U U49C, the self-cleavage is 1.45.
In the case of A91G A126G, the self-cleavage came to 0.55.
For U87C U108A, the self-cleavage is 0.01.
With C6G U87C, the self-cleavage amounted to 0.65.
Turning to A60U A89G, the self-cleavage is 1.73.
As for C40U G44A, the self-cleavage was determined as 2.32.
On to A54G A114C, for which the self-cleavage was found to be 0.09.
For the variant A67G A91U, the self-cleavage was 0.99.
For A33U A110G the value was 0.08; for U37C G74U, 0.2; for U49C U72C, 0.3.
For U39A U70C the value was 0.92; for A114U U131C, 0.02.
Regarding A22G A78U, the self-cleavage turned out to be 0.32.
Take G7U A23C: the self-cleavage worked out at 1.66.
For the variant A47G U132A, the self-cleavage came out at 1.55.
As to U37C U87C, the self-cleavage stood at 0.99.
For U2C U102C, the self-cleavage turned out to be 0.64.
With U100C A118U, the self-cleavage was found to be 0.77.
Consider A27G A118U, for which the self-cleavage stood at 0.36.
Regarding A51G G80A, the self-cleavage amounted to 0.36.
G50A C113A: the self-cleavage came to 0.
On to C45U A82G, for which the self-cleavage was determined as 0.27.
Turning to C105U U132C, the self-cleavage was 0.16.
Regarding U108C A134G, the self-cleavage turned out to be 0.07.
For C16U A66U, the self-cleavage is 1.27.
Consider A18U A27C, for which the self-cleavage is 1.5.
As to G80A A91G, the self-cleavage worked out at 0.08.
On to A67G U103A, for which the self-cleavage amounted to 0.89.
For U9C U131A the value was 1.8; for U57G A91G, 0.52.
For A86U G93U the value was 2.01.
For the variant U100C C109U, the self-cleavage is 0.89.
With U43C U72C, the self-cleavage amounted to 0.07.
For C17U U100A, the self-cleavage came out at 0.96.
On to A59G U130G, for which the self-cleavage came out at 1.62.
As for U37C A90U, the self-cleavage was found to be 0.91.
As to A51G A92G, the self-cleavage was 1.45.
As to A22G U70A, the self-cleavage was determined as 1.28.
For the variant A23C A114U, the self-cleavage was 0.01.
Regarding A36G A96C, the self-cleavage was found to be 0.95.
For U49C A91U the value was 1.68.
With A59U U132A, the self-cleavage is 1.61.
As for A92U U122C, the self-cleavage is 1.3.
For the variant U39A A110U, the self-cleavage turned out to be 2.06.
As to G31C A56G, the self-cleavage came out at 1.63.
For U103A U131G the value was 0.22.
For the variant C25U A89C, the self-cleavage was found to be 1.42.
For the variant A27G A98G, the self-cleavage was 0.77.
Regarding U49C G80U, the self-cleavage came out at 0.11.
For G1A G137A the value was 0.95; for A13G A64C, 1.08; for U19A A96G, 1.64.
On to A23G A98G, for which the self-cleavage was found to be 0.23.
Take U38A U39C: the self-cleavage is 1.62.
For A91G A134G, the self-cleavage turned out to be 0.97.
As to A67G U102C, the self-cleavage was 1.56.
Turning to G41A G106A, the self-cleavage is 0.01.
Regarding U19C A69G, the self-cleavage stood at 1.05.
Take A54C U122C: the self-cleavage amounted to 0.42.
As to A23U A86C, the self-cleavage was 0.82.
For the variant U26C A78U, the self-cleavage was 0.21.
A13G A22G: the self-cleavage turned out to be 1.11.
Consider U19G U100A, for which the self-cleavage is 0.74.
